The values below come from patent US20250326796A1 (SHANGHAI UNIVERSITY, published 2025).

In this assay the target is T1, STING (mouse, UniProt Q3TBT3 1-378).
T1 sequence (looked up): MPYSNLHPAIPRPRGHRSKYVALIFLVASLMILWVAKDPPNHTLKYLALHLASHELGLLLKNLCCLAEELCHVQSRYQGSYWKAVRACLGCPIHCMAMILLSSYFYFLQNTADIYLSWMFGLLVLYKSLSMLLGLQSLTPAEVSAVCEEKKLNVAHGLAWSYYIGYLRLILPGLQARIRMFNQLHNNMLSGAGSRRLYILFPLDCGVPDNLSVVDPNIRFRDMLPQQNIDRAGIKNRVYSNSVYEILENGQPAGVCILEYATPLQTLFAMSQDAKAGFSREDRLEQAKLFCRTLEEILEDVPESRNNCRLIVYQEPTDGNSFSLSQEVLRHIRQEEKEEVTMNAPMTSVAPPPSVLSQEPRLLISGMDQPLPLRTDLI
Kind of assay: cell-based or functional assay.
NFNVAHGLAWSYYIGYLRLILPELQARIRTYNQHYNNL (not fully specified; N-terminus acetylated (-Ac); C-terminus amidated (-NH2)) [SIP-9]: the “IC50 for inhibiting Ifnb mRNA (RT-qPCR, RAW264.7 cells stimulated with 2'3'-cGAMP)” value (“IC50 for inhibiting Ifnb mRNA” for short) was 41.9 µM. Then NFNVAHGLAWSYYIGYLRLILPELQARIRTYN (N-terminus acetylated (-Ac); C-terminus amidated (-NH2)) [SIP-8], with 32.6 µM; and NFNVAHGLAWSYYIGYLRLILPELQARIRTYNQHYNNLLR (N-terminus acetylated (-Ac); C-terminus amidated (-NH2)) [SIP-11], with 53.2 µM. For the molecule Ac-NFNVAHGLAWSYYIG-NH2 (not fully specified) [SIP-5], the “IC50 for inhibiting Ifnb mRNA” value stood at 28.5 µM. On to NFNVAHGLAWSYYIGYLRLILPELQARIRTYNQHYNNLL (N-terminus acetylated (-Ac); C-terminus amidated (-NH2)) [SIP-10], for which the “IC50 for inhibiting Ifnb mRNA” value amounted to 66.3 µM. On to Ac-NFNVAHGLAWSYYIGYLRLIL-NH2 (not fully specified) [SIP-6], for which the “IC50 for inhibiting Ifnb mRNA” value was 35.3 µM. In the case of NFNVAHGLAWSYYIGYLRLILPELQ (N-terminus acetylated (-Ac); C-terminus amidated (-NH2)) [SIP-7], the “IC50 for inhibiting Ifnb mRNA” value was found to be 18.9 µM. To Ac-LAWSYYIGYLRL-NH2 [SIP-1] belongs 8.6 µM.
